Assay results: the DeepSol protein solubility set

Assay: soluble on expression in E. coli; label from the status in PepcDB or PDB records

| Sequence | soluble on expression in E. coli |
| --- | --- |
| METRTAENTAIFMCKCCNLFSPNQSELVTHVSEKHGEEGVNVDDVIIPLRPLNTPENPNPSKGGDEFLVMKRKRGRPKGSTKKPSTEEEVVENLVSPSEDGPLATEEGSRLAPSSLECSKCCRKFSNTRQLRKHICIIVLNLGEEDGDAGNESDLDLEKTYKEDDREKASKRPRAQKTEKVQKISGKEAGQLSGAKKPIISVVLTAHEAIPGATKIIPVEAGPPETGAPPPETTAADLVPRRGYQEYAIQQTPYEQPMKSSRLGPTQLKIFTCEYCNKVFKFKHSLQAHLRIHTNEKPYKCSQCSYASAIKANLNVHLRKHTGEKFACDYCSFTCLSKGHLKVHIERVHKKIKQHCRFCKKKYSDVKNLIKHIRDMHDPQDKKVKEALDELRLMTREGKRQLLYDCHICERKFKNELDRDRHMLVHGDKWPFACELCGHGATKYQALELHVRKHPFVYVCALCLKKFVSSIRLRSHIREVHGAAQETLVFTSSINQSFCLLEPGGDIQQEALGDQLQLAAEEFVCPEIDVRKEEACPGEAQPEVGLRELVVPGDAHAPPPGPLATPQSESSSLSPCKLETTVVSSDLNSLGVVSDDFLLKSDTSSAEPPAAAEATSDTQHRDSAQTQGEEVTLLLAKAKSAGPDPESSPGGRQKVGALPASESDSSTCLRANPTEASDLLPTVTDGGDLGVCQPDSCTPSSEHHPGSTAFMKVLDSLQKKQMNTSLCERIRKVYGDLECEYCGKLFWYQVHFDMHVRTHTREHLYYCSQCHYSSITKNCLKRHVIQKHSNILLKCPTDGCDYSTPDKYKLQAHLKVHTELDKRSYSCPVCEKSFSEDRLIKSHIKTNHPEVSMNTISEVLGRRVQLKGLIGKRAMKCPYCDFYFMKNGSDLQRHIWAHEGVKPFKCSLCEYATRSKSNLKAHMNRHSTEKTHLCDMCGKKFKSKGTLKSHKLLHTSDGKQFKCTVCDYTAAQKPQLLRHMEQHASFKPFRCAHCHYSCNISGSLKRHYNRKHPNEEYTNVGSGELAAEALIQQGGLKCPVCSFVYGTKWEFNRHLKNKHGLKVVEIDGDPKWEPAAETPEEPSTQYLYITEAEDVQGTQAAVAALQDLRYTSESGDRLDPTAVNILQQIIELGSETHDAAAVASVVAMAPGTVTVVKQVTDEEPSSNHTVMIQETLQQASVELAEQHHLVVSSDDVEGIETVTVYTQGGEASEFIVYVQEAVQPVEEQVGEQPAPEL | soluble |
| ITEDEIRTLMEQGADEGVFDRAEQELVENIFRLDNRKASAVMTPRKDVVILDLEDGPERNRELLLGHPFSHFPVCRGDTDQVIGMLNAKTLLDRLLRGEALDFAAELSPPLYVPSTCSLMQLLEQFKQARSHSALVVDEYGELEGLVSINNVMEAIVGDLPAIDGEEDEIV | not soluble |
| MSLSRYPQLIQEQILKCKESWDSNSYKTSLRSFVYNKVNETDAILYTKPTNVSQEEWDKAIENKPSSDLIPIQVFGFEGLNNRNQIQVENVAQARVILNQILDKTKQLQQSHSFETSARIMKVQARNAQIEKRILKLGTQLAILKNRRLPLTISEEKMWGQFQELLKSSNDPAGLGKTNELWARLAVLRERAKTISEQLDSKLVIIGENGGQTGKPSASGDNNRVSDEVYDRIDKIAEILKNQQSGIAYLNDVLEKDNKALDSVVELKEGHHHHHH | soluble |
| MRYTMDIEFSQIHEMVYMHDIVNSDSKKKPRIPLKKFLNAENVLTQTTSWTLNSRYVNVNSVNKVNVKSKVKNSYISRSVNDEFSLTDDEINSFKETLVLSSIDSLSKLVLNNPLSVLFTSTVRRNNNRAKMNVEFDSWICTRCCLEHHHHHH | soluble |
| MGSDKIHHHHHHMKTQFPSVWQDKLSQKHFSAFTTIQEAAFDPIKNGKSLLGISPTGSGKTLAYLWPSLLTLTPKKAQQLLILAPNTELAGQIFEVAKEWAQPLNLTAQLFLSGSSQKRQIERLKKGPEIIIGTPGRVFDLVKLKKIKMMNVNTIVLDEFDDLLGKSQIHFVKNIVKRVPRDHQMIYMSATNSIDRTFLADDTLEIDLSKQTVDTISHYYITVAKRERGELLRKFSNIPNFRGLVFFNRLSDLGANEERLQFSGASAVSLASDVNIKFRKVILEKFKNHELSLLLATDLVARGIDIELLETVINFDLPRDKDAYNHRAGRTGRMGKNGIVVTFISHPEELKKLKKFAHVSEVYLKNQILHKK | not soluble |
| MSQEVEETLKRIQSHKGVVGTIVVNNEGIPVKSTLDNTTTVQYAGLMSQLADKARSVVRDLDPSNDMTFLRVRSKKHEIMVAPDKDFILIVIQNPTD | soluble |
| MGLKLDLTWFDKSTEDFKGEEYSKDFGDDGSVMESLGVPFKDNVNNGCFDVIAEWVPLLQPYFNHQIDISDNEYFVSFDYRDGDW | soluble |
| MSSKPLYTILTVFNPIFIYFTKRDNLHTLRFKKDRAIKISEELFPDELCERCGRCCILHAYKTEDGIKTIYCEHLDPETKLCKVYKDRFKHRCLTVMEGILAGVFPKDCPYVKNLKNYEEPWFYRHLRDLEHHHHHH | not soluble |
| GPGSMMTTCPQTRCYNCGTFGHSSQICHSKPHCFHCSHSGHRSSECPMRSKGRVCYQCNEPGHEAANCPQGQLCRMCHRPGHFVAHCPEVVCNLCHLKGHTAGVCDNVHCDNCGRNHETVHCHQPYLAPVTHDRVSEERSASLPSEHDPSSADQSNNSATPCDSDDGGSNRGGEPRPRTGVSCAPVVPPYIPLDGPKRDGRVAIVVDGSYFERCVAVRRNRSDPTYYRHITDALLYTIDYIGDIFQCEPFAYWFDTDTAAFREFVETSMPLAHRENAFREASMRKRYLTDEMNSGRSLPNVVAKLVGGMKRQRGFTEDGPGHVWVQTGVDVATATCVIELFQDRRQFRQVVLLCGDADVYPAVQYCNTLRRSSHQHADSNPVRVCGTSDSMSKIYGQQQDLTDFLPRLLLDCPLHTEGGRTIEFPTSKVFMSVR | not soluble |
| GSRNPNKLDINTLTGEERVPVVNKRNGKKMGGAMAPPMKDLPRWLEENPEFAVAPDWTDIVKQSGFVPESMFDRLLTGPVVRGEGAS | soluble |
| MHHHHHHSSGVDLGTENLYFQSMLPHSVLLEIQKELLDYKGVGISVLEMSHRSSDFAKIINNTENLVRELLAVPDNYKVIFLQGGGCGQFSAVPLNLIGLKAGRCADYVVTGAWSAKAAEEAKKFGTINIVHPKLGSYTKIPDPSTWNLNPDASYVYYCANETVHGVEFDFIPDVKGAVLVCDMSSNFLSKPVDVSKFGVIFAGAQKNVGSAGVTVVIVRDDLLGFALRECPSVLEYKVQAGNSSLYNTPPCFSIYVMGLVLEWIKNNGGAAAMEKLSSIKSQTIYEIIDNSQGFYVCPVEPQNRSKMNIPFRIGNAKGDDALEKRFLDKALELNMLSLKGHRSVGGIRASLYNAVTIEDVQKLAAFMKKFLEMHQL | soluble |
| MSLGPIIMGQSLKAGIFFRIVTGSASMSSDRADGSSVTYSSNRSGNPDLRLIHYNDVYHVEPGSAEPVGGAPRFQSVINHYRSHPSFDGQPTPLTFFSGDAFNPSLESTVTKGRHMVPFLNKAGTNVACVGNHDLDFGVAQFRHLRNQCQFPWLLANVLDPALGEDVPIANCEKTCMLTSSNGIKVGVIGLGEREWLGTINSLPPDLIYKSASKTAIELVPSLREQGAELIVAVTHQREPNDYKLAESIPYGMIDIILGGHDHFYGHAFLNGVHILRSGTDFKQLSYIEAFRKTDGRGWDFNIVRREGHHHHHH | soluble |
| MSLEKMEDHFILCGYGLMGREIIKELPKDKVVVIDSDIGKVSAAREDGYVAVHGDATDDFTLEKAGIGKAKALICCMSDASNAFAILTAKELNPRIKTVAILRSPDAEKKMRRVGVDILLSPYRDAAKKIISLLSEKAVAEFVETVISGAKSLNLEKVVADEYMDGKTLRELDLRRRTGCIVVAVVRRGDVILPEADTRLEKGDILYILCSGEAPLELEGHHHHHH | soluble |
| MYPSDFASALESLSLKEMRQAIHRLLDIRDENTWMLFGTLPFYACSPDEDDQKLLRRLRAAKNVTVRNDPDGRSRLNVNIFDGNIIVTDFGDTPPLGNIQTDSLPSAYEKWRETKLAKELSCHCPNVRCLGPNVLVKNSYYQDTDFTKRQARS | not soluble |
| MGSDKIHHHHHHVIIESRIEKGKPVVGMETTVFVHGLPRKEAIELFRRAKEISREKGFQLAVIGILKGKIVAGMSEEELEAMMREGADKVGTREIPIVVAEGKNAATTVSATIFLSRRIGIEVVVTGGTGGVHPGRVDVSQDLTEMSSSRAVLVSSGIKSILDVEATFEMLETLEIPLVGFRTNEFPLFFSRKSGRRVPRIENVEEVLKIYESMKEMELEKTLMVLNPVPEEYEIPHDEIERLLEKIELEVEGKEVTPFLLKKLVEMTNGRTLKANLALLEENVKLAGEIAVKLKRS | soluble |
| MGSDKIHHHHHHMRYTYRHIGILTISLIVASCSFSQKQADNNHDKDMNPNVKIVVLDPGHFHASLLQKNPLASVNDTIRVYAPEGAEVKQYLNDINSYNQRAENPTSWKEEIYIGGDYLSRMLSDRQGDVVVLAGNNQKKTNYILEAIKAGYNVLSDKPLAINKKDFDLLIQAYQLAKERKLLLYDLMTERYDILNIIEKALLNNPDLFGELQKGSLNDPSVSMESVHHFFKNVSGKPLIRPVWYYDTEQQGEGIADVTTHLIDLVNWQCFPNETIRYQSDVEVLKARHWPTRITLPEFSQSTQADTFPAFLNKYINNNVLEVLANGSLNYTVKGIHIGMKVIWNYTPPSDGGDTFTSLKKGSKATLKTIQDKESGFVKQLYIQRAADSDHSEFESQLQKAIKQLQATYPFLSVKKMNEGLYLIDIPQADRLGHEAHFSKVAEAFLGYLHDKNMPEWENENTISKYYITTTAVELAKKEK | not soluble |
| MIDLRKLTEVQRRLSRKIVEKPIDIAKVKRVGAVDVSYKNNFAKAAFVCVEFPSGEIIKTKTIVTTVEFPYIPTFFFLRETKPILLAVKDENFDVLLVEGHGKAHPRRYGLASHIGVILSKPTIGVAKRLLRGVSKDTYVKVGKAFVSVGNLITLNDAVRIVEKLLDENGYPKPLNIADKLSKRGESREKELEHHHHHH | not soluble |
| SNAKNRLGTKALNFTYTLDSGVKGTLYQFPAEYTLLFINNPGCHACAEMIEGLKASPVINGFTAAKKLKVLSIYPDEELDEWKKHRNDFAKEWTNGYDKELVIKNKNLYDLRAIPTLYLLDKNKTVLLKDATLQKVEQYLAE | soluble |
| MAPATQRNRETIAAVLQEYLPSQGSILEIASGTGEHACFFAPLFSPRWWITSDPDPLCRESIMAWRDHQALANFQSPLDLDVNDQVWPVEREILREPVTSIVAINLIHISPWESCLGLLTGAERILPEGGILYLYGPYRQKGVPTAPSNEAFDQSLQSRNPAWGLRQLEDVIGEAGKRNLHNQAIIPMPANNLSVIFQKGLEHHHHHH | soluble |
| GSMFPHHSITESVNYDVKTFGSSLPVKVMEALTLAEVDDQLTINIDEGGWACLVCKEKLIIWKIALSPITKLSVCKELQLPPSDFHWSADLVALSYSSPSGEAHSTQAVAVMVATREGSIRYWPSLAGEDTYTEAFVDSGGDKTYSFLTAVQGGSFILSSSGSQLIRLIPESSGKIHQHILPQGQGMLSGIGRKVSSLFGILSPSSDLTLSSVLWDRERSSFYSLTSSNISKWELDDSSEKHAYSWDINRALKENITDAIWGSESNYEAIKEGVNIRYLDLKQNCDGLVILAAAWHSADNPCLIYYSLITIEDNGCQMSDAVTVEVTQYNPPFQSEDLILCQLTVPNFSNQTAYLYNESAVYVCSTGTGKFSLPQEKIVFNAQGDSVLGAGACGGVPIIFSRNSGLVSITSRENVSILAEDLEGSLASSVAGPNSESMIFETTTKNETIA | soluble |
| MSLQVKHLLLIAILALTAACSSNKETVDENLSESQLYQQAQDDLNNKSYNSAVTKLKALESRYPFGRYAEQAQLELIYANYKNMEPEAARAAAERFIRLHPQHPNVDYAYYLKGLSSFDQDRGLLARFLPLDMTKRDPGAARDSFNEFAQLTSRFPNSRYAPDAKARMVYLRNLLAAYEVHVGHYYLKRQAYVAAANRGRYVVENFQETPAVGDGLAIMVEAYRRLGLDDLASTSLETLKLNYPDNASLKDGEFVARESEADTRSWLAKATLGLIEGGEPPPHMETQAAKDVIKQYEDAEREIPAELKPENQDHSADDEKPESDDDEDSGRSWWSYMTFGLFDEGGSHHHHHH | soluble |
